From patent US5541078

Target: synthetic peptide 89-122 of Eg 6 (Echinococcus granulosus)
Experiment: ELISA on bound peptide, ascites diluted to 1/100 (control)

Question: How did the mean of the optical densities (optical density) turn out when “myeloma ascites (SP2/0) (polyclonal serum or antibody)” was run?
Answer: 0.12
